Laboratory results reported in the DeepSol protein solubility set.

assay: soluble on expression in E. coli; label from the status in PepcDB or PDB records

| Sequence | soluble on expression in E. coli |
| --- | --- |
| MKVAIASDHGGVHIRNEIKELMDELQIEYIDMGCDCGSGSVDYPDYAFPVAEKVVSGEVDRGILICGTGIGMSISANKVKGIRCALAHDTFSAKATREHNDTNILAMGERVIGPGLAREIAKIWLTTEFTGGRHQTRIGKISDYEEKNL | soluble |
| MKVAIIAANGGLFDAYKVINIGTAGAAADAEVGVFFTGEGLNLIHKEAHKQWPIPEGKEHFQQGFQKANVPSIAELLQMAQEMGVKLIACQMTMDVMGLDKDQFVDGIEVAGAATFLQFAKDADITLAF | not soluble |
| MKVAILGASGWIGSHLAAEAKMRGHEVVAVVRDPAKVTLKGVAVQQLDILNPESSLKSVLEGVDAVIASIGGRAAGNHEMVAKTAQRLLNELPQAGVARLLWVGGAGSLEVAPGVKLVTVPGFPEEYKGEALAQGEALEVFRASNSDVNWTFVSPAAEIFPGDKQGQYRVGGDQLLTDSEGNSRISVADYAVALIDELEYAEHPRQRIGVAYLEHHHHHH | not soluble |
| MKVAILGYGTVGSAVVKFLLENDKLIRARCGQSITPVIALARSPKKNALIPITHSVAEILNADVDVFVELMGGVDEAFKIVSEILKKKKAVVTANKAMLAYHRYELENLAKNLAFGYEASVAGGIPIIKVLKEGLSANNILAIKGILNGTSNYILSSMSQKNMSFKQALQIAQNLGYAEADPTFDIEGQDAAHKLLVLSSIAYNLKAKPEDILIEGISEIAPEDMYFANEFEFTIKLLGIAKVRENKVELRVHPTMIDKEKMLAKVDGVMNAISINGDLLGESLYYGAGAGGEATASAVISDLMDIARDQVKAPMLGFVNTLEYKLLSKDEIYTKYYLRVKVEDKIGILSKITQLMSENNISIDSFLQKPKKNDENYSTLFFTTHLTYEKSIQNLLEILRKQDFIKTKPFMMRIE | not soluble |
| MKVIETNFTDAKLLEPRLFGDDRGFFTESYNKKVLETLGVTHSFVQDNVSYSAEAGTIRGLHFQKNPKAQTKLIQVMQGAIYDVIVDLRKDSPTFKQWRGYILSADNHRQLLVPKGFAHGFCTLVPHTIVMYKVDEYYSADHDSGVLWNDKELAIPWPVTSPILSDKDRILPLLQECEDSF | not soluble |
| MKVLAFDTSSKALSLAILEDKQVLAETTINIKKNHSITLMPAIDFLMASLDWTPKDLDRIVVAEGPGSYTGLRIAVATAKTLAHTLNIELVGMSSLLALVPHQQEGLFVPLMDARRNNVYAGFYENAKPVMAEAHLSFEEVLEKVKGTSQVTFVGEVGPFVEQIQKHLPRTDYKETLPNAANLALLAWDKEADSLHDFVPNYLKRVEAEENWLKNHTESGESYIKRL | not soluble |
| MKVLFVYAGMHPAHEPFVEAVKADVYPAYHKDVNGFVKFVEGLKMAREYPDYDVYILEGGMPMFPMYLRKKLFRKNGFVVGLLADETFINLVERQPHYSTAETLIHRISAKVLDAAIAVSPFVKEYAEKIIDVPIEVVRPAIPKDSYEKLGKVKPNLESNVIVSVGQPRFSIGMDVLVEQFRIAKKQIPDLELWIVGKGHPKEYERVEGVKVLGYVEDLSEVFEEASLFVHAGRCSAYPVATLEAMRAGLPVVVSTMTGTKEIVERVEEQVKREFGLNYDGNKFIQPLNRIFEGIVEYFKLDSEVRRIMSELYKKESEEFEPGKRGREFKEKFKKLLANFNNKEVP | not soluble |
| MKVNILMATYNGEKFLAQQIESIQKQTFKEWNLLIRDDGSSDKTCDIIRNFTAKDSRIRFINENEHHNLGVIKSFFTLVNYEVADFYFFSDQDDVWLPEKLSVSLEAAKHKASDVPLLVYTDLKVVNQELNILQDSMIRAQSHHANTTLLPELTENTVTGGTMMINHALAEKWFTPNDILMHDWFLALLAASLGEIIYLDLPTQLYRQHDNNVLGARTMDKRFKILREGPKSIFTRYWKLIHDSQKQASLIVDKYGDIMTANDLELIKCFIKIDKQPFMTRLRWLWKYGYSKNQFKHQVVFKWLIATNYYNKRLEHHHHHH | soluble |
| MKVNVSCSSVQTTIDILEENQGEDESILTLGQLRDRIATDNDVDVETMKLLHRGKFLQGADDVSLSTLNFKENDKIIVMGGKNALVDDAGFKMLMQYEKHNLSNLQKAYDLNLRDVADLERGFLEKPKQVEMGKKLEKKVKYFNEEAERHLETLDGMNIITETTPENQAKRNREKRKTLVNGIQTLLNQNDALLRRLQEYQSVLNGDIPE | soluble |
| MKVRAIFLNFSVQLTPPSRLVILRNQSVFFSALLLNCPPLLPLPTEASPCYAVSESQPYARKQSCIITAARSAPSVDHIQVVLCRPHNSLLVCPSSHARSSTAVMATEDELRELLPKMRFNKEFKKKQKYQYKKRVEAREKEREIVTGKRRPASEQIQSASDGAKTKTTAAKKSGGAGRAGTKRKPKTRVPKLKVANVETGKETLTKKKARELVQENRKKKACAKKEPKLTAKSTRAGAATAAVVSSETLEGKQSKARVTKDELPATAAQAASSVEPTQTLTQAERDRELLARAIRGDDLLGSDAAAGVADDAAFIRQDPSLYPDHAFLDDYAEKKHAEAVSADELLQNAHHFFKKLSKQERALNKVAKEHINHLRAVNRRGGDKQGFRYVVPKNVKQVVRELLSAQKARDGDEDPETLVDTEQLVSTFGGDGVAETSEKPVRRSRRRRLRTYSDFYQFQVSRRWTRNAENFLKRSRSNKLLFEAKKHQRTIKHF | not soluble |
| MKVSDILTVAIRLEEEGERFYRELSEHFNGEIKKTFLELADQERIHAEIFRKMSDQENWDEVDSYLAGYAFYEVFPDTSEILRRKDLTLKEVLDIAISVEKDSIILYYELKDGLVNSDAQKTVKKIIDQEKEHLRKLLEMKREST | not soluble |
| MKWKVLQLKTQEIKVNNLAKSSLHQPGSLVLRNRIRNNQTISNHQKVYITNLHKDKLKLNNLLRLMKSTNRHMPFRNLVLATGQELALLHNKRKRRKTLPLALFYSHLILL | not soluble |
| MKWRTRVTELLGITYPIIQGGLAYLAYADLAAAVSNAGGLGQITAMSLDGPEQLREEIRKVKEKTDRPFGVNFAIGQHGRPFAHMLEAALDEGVPVVSVTGGNPAPFFEQLKGTNVKKLVLVAAVRQAVKAEELGADAVMVVGQEGGGHLGKYDTGTFVLIPKVVDSVSIPVIASGGIADGRGLMAALALGAEGIEMGTRFIATKECVHAHPAYKEMILNATENDTVIIKRSLGAPGRVLANAWAEKILEIERQGGTYDDLKEYISGEANRRFIYEGKVDEGFAWAGQAIGLIHDVPSVAELFARMIEEAEQIRRRWAN | not soluble |
| MKYKDLRDFIAMLEQQGKLKRVAHPVSPHLEMTEIADRVLRAEGPALLFENPVKPDGTRYDYPVLANLFGTPERVAMGMGADSVSKLREIGQTLAYLKEPEPPKGIKDAFSKLPLLKDIWSMAPNVVKNAPCQEIVWEGEDVDLYQLPIQHCWPEDVAPLVTWGLTVTRGPHKKRQNLGIYRQQLIGKNKLVMRWLSHRGGALDYQEFRKLNPDTPYPVAVVLGCDPSTILGAVTPVPDTLSEYQFAGLLRGSRTELVKCIGSDLQVPARAEIVLEGVIHPNETALEGPYGDHTGYYNEQGHFPVFTVERITMRENPIYHSTYTGKPPDEPAVLGVALNEVFVPLLQKQFSEITDFYLPPEGCSYRMAVVSMKKQYAGHAKRVMTGCWSFLRQFMYTKFIIVVDDDVNVRDWKEVIWAVTTRMDPVRDTVLVENTPIDYLDFASPVSGLGGKMGLDATSKWPGETDREWGRVIKKDPAVTVKIDGIWGKLGLLEHHHHHH | not soluble |
| MKYQLRAIDNQLDEMLQFSGAIAVEGVKGVGKTESAIRRSEHLLQLDRAGDRQLLEADPEFSSFSTGTILIDEWQRMPECWDFVRRGVDAQRTPGRFLLTGSATPQAGIDTHSGAGRILSIRMRPMALFERREHSATVSLADLFLGNAPISGTTDLTLNDYVSEIARSGFPGFNEQPQRAINVELDSYIERIVDRDLPEQGYNVRNRAGLLGWMRAYAAASSTTMSYSEILNAATPGESDKPARKTAALYRSKLTEIWMLDEVPAWDFVRSPLAGLAQAPKHQLADPAFVLRLLGVPANRLVTERYRHFLGPLFESLATLSVRVAAESQFGSVRHLRTRRGDHEVDLIASNQDGDLVAIEVKLTADVKNDDVAHLHWLKEQLPDDVVDMVVLTTGNRAYRRSDGVAVVPLALFGA | not soluble |
| MKYSSIFSMLSFFILFACNETAVYGSDENIIFMRYVEKLHLDKYSVKNTVKTETMAIQLAEIYVRYRYGERIAEEEKPYLITELPDSWVVEGAKLPYEVAGGVFIIEINKKNGCVLNFLHSKLEHHHHHH | not soluble |
| MKYTFLLLCAIFGCTLAMRQQSVAVSGKLMCGSKPASGVKVKLWDEDDGPDPDDVLDEGFTNNDGTFRLEGSERELTNIDPVFKVYHDCDDGIIPGQRKIKFRIPNKYISAGGRAQKTFEIGVLNLETIFPKEERDLL | not soluble |
| MLALMDADGNIAWSGEYDEWGNQLNEENPHHLHQPYRLPGQQYDKESGLYYNRNRYYDPLQGRYITQDPIGLEGGWSLYAYPLNPVNGIDPLGLSPADVALIRRKDQLNHQRAWDILSDTYEDMKRLNLGGTDQFFHCMAFCRVSKLNDAGVSRSAKGLGYEKEIRDYGLNLFGMYGRKVKLSHSEMIEDNKKDLAVNDHGLTCPSTTDCSDRCSDYINPEHKKTIKALQDAGYLKLEHHHHHH | not soluble |
| MLASIVISSVHSIGTGALECRATHRGHRAGPYLSSSETRHRAAISGTVDMRETKQGLRHSGRSPSVASPKIDELIGRPQPDTIRLSRGRPVRNS | not soluble |
| MLAVSFIAGVILIGLYGVDSSERYIAVSELLANPQDYSGQNINAMGVVEDRSLHKDPGVTSFDLKDENDENLKIHVNYVGNLPSNLAEGKQVTIRGSMISESTFEANKIVTGCPSKYTELEHHHHHH | not soluble |
| MLDLFADAEPWQEPLAAGAVILRRFAFNAAEQLIRDINDVASQSPFRQMVTPGGYTMSVAMTNCGHLGWTTHRQGYLYSPIDPQTNKPWPAMPQSFHNLCQRAATAAGYPDFQPDACLINRYAPGAKLSLHQDKDEPDLRAPIVSVSLGLPAIFQFGGLKRNDPLKRLLLEHGDVVVWGGESRLFYHGIQPLKAGFHPLTIDCRYNLTFRQAGKKENLYFQNLYFQ | soluble |
| MLEDYAISLEEVNFNDFIVVDVRELDEYEELHLPNATLISVNDQEKLADFLSQHKDKKVLLHCRAGRRALDAAKSMHELGYTPYYLEGNVYDFEKYGFRMVYDDTCDKKN | soluble |
| MLEESKNALRVFITGNPGVGKTTILLFLINKLSENNYKVAGFYCPEVRENGRRIGFRIVDITTNEGDWLAKENAPGRVKIGKYTVLEDSAKRITEITLSNINKADVLAIDEIGPMELKIPTIKKLIETILNNQKPLIAVLHRTQKPMGGRIYVITVENRDSIKYEILNYILSSLD | soluble |
| MLEKFTVIRGKAVPLRGEDIDTDRILPARFMKVLTFEGLGQYLFYDERFDEKGNPKPHPLNDPRYRGATILLVESGFGSGSSREHAPQAIKRAGFKAIIGESFAEIFFGNATAIGLPCVSLAPEDLGVLFRSVEENPELEVEIDLVNKEVRFGDRTAPLFIREEAREALVEGLWDPIGELLEAGELLDQFDRKLPYPRRTE | soluble |
| MLEKIYSVLGTGSCLVKDGEIIESYLLSDEEVKLIEKIAKVIPFLPEKFKVGFFEHEGGRIIAIKHGEVFICFPARSDNVMSELRKVEVEVYDKILSP | not soluble |
